Experimental data taken from patent publication US20180280528A1, “ANTIFOLATE CONJUGATES FOR TREATING INFLAMMATION” (ENDOCYTE, INC., priority 2015, published 2018).
Read-outs that look alike come from different tables or passages of the source.

Assays:
[1] = Incubation with rat TG macrophage cell lysates; format: in vitro ADME; conditions: rat TG macrophage lysate, pH 4.5, 37° C., 1 hour
Experimental: Female Lewis rats approximately 200 grams in size (Harlan Laboratories, Indianapolis, Ind.) were injected intraperitoneally at 20 mL/kg of body weight with sterile 7.5% thioglycollate solution (BD Biosciences) supplemented with 12.5% BSA aged for more than 6 months in the presence of 0.5 M D-glucose at 37° C. in the dark according to the procedure of Li et al. (Journal of Immunological Methods (1997) 201:183-188). Three days later these rats were humanely euthanized with CO2 asphyxiation and total peritoneal cells isolated by intraperitoneal lavage with 50 mL of sterile phosphate buffered saline (PBS) containing 0.5 mM EDTA. Red blood cells were lysed with a 5 minute incubation with 1×RBC lysis buffer (BioLegend, San Diego, Calif.). […] Cells were incubated for 2 hrs in 5% CO2. After two hours, floating cells/debris was removed and the adherent cells were washed once with drug free media. Normal growth media (10% FCS RPMI1640) was added to each plate of cells and then incubated for 1, 2 and 3 days in the tissue culture incubator. The adherent cells were harvested using an 8 minute trypsin digest to loosen the cells and then gently scraped off the plate. […] Live cells were counted and then washed once with cold PBS. […]

[2] = Incubation with THP-1 FRβ cell lysates; format: in vitro ADME, human; conditions: THP-1 FRβ lysate, pH 4.5, 37° C., 2 hours
Experimental: To 100 μL AIA rat macrophage, RAW264.7 or THP-1 FRβ cell lysates (each containing 10 million cells/mL 0.1 M sodium acetate, Ph 4.5) was added 2 μL of a 50 μM solution of EC2319 or EC1669 (Endocyte, Inc.). The solutions were incubated at 37° C. in a heat block (VWR International, Radnor, Pa.) for 2 hours. The reaction was terminated by the addition of 5 µL of stabilizer solution and 100 μL of acetonitrile containing d5-aminopterin (Endocyte, Inc.). The rest of the workup is as described above.

[3] = Pharmacokinetics in dogs; conditions: beagle, dog, in vivo
Experimental: (§1) The samples were centrifuged under refrigeration for at least 10 minutes at 3000 rpm and the plasma generated stored at −20° C. until LC-MS/MS analysis.
as §1
(§2) LC-MS/MS analysis utilized a Waters Acquity UPLC system paired with a Waters Quattro Premier XE tandem quadrupole mass spectrometer operating in ESI positive mode. Prior to injection, K3EDTA plasma samples were processed using a Phenomenex Strata X-A solid phase extraction (SPE) plate. All plasma samples were fortified with N-Maleoyl-β-alanine, mannitol, and acetic acid. Briefly, 50 μL of plasma diluted with 50 μL of internal standard solution and 500 μL 1000:4:1.5 water:ammonium hydroxide:formic acid was mixed and loaded onto a preconditioned Strata X-A SPE plate. Aqueous and organic washes were then applied followed by elution of all analytes with 300:200:7.5 methanol:water:formic acid. The samples were evaporated until approximately 30 μL remained in all wells and 30 μL of 9:1 water:ammonium hydroxide was then added. Finally, the plate was sealed, mixed, and centrifuged prior to transfer to the 2-8° C. Acquity autosampler. Note: During EC1669 analysis, EC0470 was converted to a hydrazone product for bioanalysis. Acetone (500 μL) was added to all samples after the first evaporation step followed by sealing all wells and heating at 50° C. for one hour. After this step, the acetone was evaporated and the extraction completed as described above.
(§3) A 10 μL sample volume was applied to the Waters BEH Shield RP18 100×2.1 mm, […] UPLC column operating at a flow rate of 0.4 mL/min while being maintained at 45° C. A gradient between mobile phase A (1000:4:1.5 water:ammonium hydroxide:formic acid) and mobile phase B (acetonitrile) was used to separate the analytes. The gradient was held at 2% B for the first 30 seconds of the chromatographic run followed by increasing to 20% B by 2.5 minutes. A rapid gradient from 60-90% B is then used to clean the column prior to equilibration at 2% B to complete the 4 minute run cycle.
(§4) For EC1669 MS/MS analysis, EC1669 and its known major metabolites, EC1886 and […], were optimized and monitored. […] In all cases, internal standard response was used to generate response ratios for each analyte. When calibrated, data was regressed using MassLynx 4.1 software. The table below lists transitions for analytes and internal standards monitored for LC-MS/MS bioanalysis.

[4] = Pharmacokinetics in rats; conditions: female, Lewis, rat, in vivo, sc, 500 nmol/kg; for AUC(0-inf): AUCinf
Experimental: Each rat was used for collection of blood samples for a maximum of 4 time points. […] The samples were centrifuged for 3 minutes at 2000×g (Eppendorf 5417R centrifuge) to obtain plasma. The plasma samples were stored at −80° C. until LC-MS/MS analysis.
as §2, §3, §4

[5] = 500 nM, 37° C., two hours
Experimental: Blood samples were maintained at 37° C. for 30 minutes prior to spiking the analyte into 2.5 mL blood at 500 nM. At time 0 and every 30 minutes for two hours, blood samples were removed and centrifuged at 2000×g for 10 minutes to generate plasma. 50 μL aliquots of generated plasma were then transferred to a clean 1.2 mL plate containing N-Maleoyl-β-alanine, mannitol, and acetic acid. Samples were stored at −80° C. until being thawed for LC-MS/MS analysis.

SMILES: N=c1[nH]c(N)nc2ncc(CNc3ccc(C(=O)N[C@@H](CCC(=O)NNC(=O)OCCSSC[C@@H](NC(=O)[C@H](CCC(=O)NC[C@H](O)[C@@H](O)[C@H](O)[C@H](O)CO)NC(=O)[C@@H](CCC(=O)O)NC(=O)[C@H](CCC(=O)NC[C@H](O)[C@@H](O)[C@H](O)[C@H](O)CO)NC(=O)[C@@H](CCC(=O)O)NC(=O)[C@H](CCC(=O)NC[C@H](O)[C@@H](O)[C@H](O)[C@H](O)CO)NC(=O)CC[C@H](NC(=O)c4ccc(NCc5cnc6nc(N)[nH]c(=O)c6n5)cc4)C(=O)O)C(=O)O)C(=O)O)cc3)nc12 [EC1669, reference compound]
- aminopterin release [1]: greater from EC1669 than from EC2319
- aminopterin release [2]: greater from EC1669 than from EC2319
- AUC(0-t) ([3]; sc, 2.4 mg/kg): 4.07 µM·h
- Cmax ([3]; sc, 2.4 mg/kg): 1390 nM
- Tmax ([3]; sc, 2.4 mg/kg): 71.4 min
- half-life ([3]; sc, 2.4 mg/kg): 59.6 min
- Cmax [4]: 472 nM
- Tmax [4]: 30 min
- half-life [4]: 27.8 min
- AUC(0-inf) ([4]; rat plasma, EC1669 dosed SC 500 nmol/kg): 0.86 µM·h
- AUC(0-t) ([4]; AUClast, rat plasma, EC1669 dosed SC 500 nmol/kg): 0.857 µM·h

SMILES: COC(=O)[C@H](CSSC(C)(C)[C@H](NC(=O)[C@H](CCC(=O)NC[C@H](O)[C@@H](O)[C@H](O)[C@H](O)CO)NC(=O)[C@H](CCC(=O)O)NC(=O)[C@H](CCC(=O)NC[C@H](O)[C@@H](O)[C@H](O)[C@H](O)CO)NC(=O)[C@H](CCC(=O)O)NC(=O)[C@H](CCC(=O)NC[C@H](O)[C@@H](O)[C@H](O)[C@H](O)CO)NC(=O)CC[C@H](NC(=O)c1ccc(NCc2cnc3nc(N)[nH]c(=O)c3n2)cc1)C(=O)O)C(=O)O)NC(=O)CC[C@H](NC(=O)c1ccc(NCc2cnc3nc(N)nc(N)c3n2)cc1)C(=O)O [EC2319]
- aminopterin release [1]: aminopterin release was observed
- whole blood stability (percent remaining of intact conjugate, formation of EC1886) ([5]; fresh human blood): superior stability profile than EC1669
- whole blood stability (percent remaining of intact conjugate, formation of EC1886) ([5]; fresh rat blood): superior stability profile than EC1669
- aminopterin release [2]: aminopterin release was observed
- bioavailability ([3]; male, 2.43 mg/kg): 133%
- Tmax ([3]; male, iv, 1 mg/kg): 1.8 min
- Vd ([3]; male, iv, 1 mg/kg): 0.41 L/kg
- clearance ([3]; male, iv, 1 mg/kg): 4.7 mL/min/kg
- half-life ([3]; male, iv, 1 mg/kg): 60.6 min
- AUC(0-t) ([3]; male, sc, 2.43 mg/kg): 5.07 µM·h
- half-life ([3]; male, sc, 2.43 mg/kg): 72.6 min
- AUC(0-inf) ([4]; rat plasma, EC2319 dosed SC 500 nmol/kg): 1.02 µM·h
